{
  "source": "the nanobody polyreactivity screen of Harvey et al. (2022)",
  "data": [
    {"assay": "yeast display, Sf9 membrane polyspecificity reagent, FACS + sequencing; frameworks hold sequencing errors", "outline": "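Nanobodies came from a synthetic yeast display library in Saccharomyces cerevisiae BJ5465, induced with galactose for 36–48 hours and stained for 1 hour at 4 °C with 10% biotinylated, detergent-solubilized Sf9 membrane reagent. Cells were enriched on streptavidin microbeads and then FACS-sorted, with low and high (top ~1%) gates set on anti-HA fluorescence for expression and streptavidin fluorescence for reagent binding. Each polyreactivity label reflects the gate a clone came from. Genes were amplified by colony PCR, sequenced by MiSeq 2 × 250 and filtered by CDR length.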", "values": [
      {"sequence": "QAQLVESGGGLVQAGGSLRLSCAASGRTSYRYVMGWYIQAPGKERELVAAISRGGRTYYADSVKGSFTISRDNAKYTVYLQMNSLNPEVTAVYYCNAAFGVYVATGDSFPRHKKFGFWGQGTQVTVSS", "polyreactivity (PSR sort gate)": "high polyreactivity"},
      {"sequence": "QAQLVESGGGLVQAGGSLRLSSAATGIIFGRYAMGWYRQAPGKERELVAAISTSGGSTYYADSVKGRFTISRDNAKNTVYLQMNSLKAEDTAVYYCAVDLFYKYDWGQGTQVTVSS", "polyreactivity (PSR sort gate)": "high polyreactivity"},
      {"sequence": "QDHLVESGGGIVQAGGSLRLSCAASGRTFHLNAIGWYRQAPGKARELVAAITNSGGRTSNADSVKGRFTISRDNAKNTVYLQMNSLKPQVTEVFFCNVEVTYSSGKYDYWGQGTQVTVSS", "polyreactivity (PSR sort gate)": "low polyreactivity"},
      {"sequence": "QDHLVESGGGLVQAGGSLRLSCAASGRIFDPYAMGWYRQAPGKERELVARITWRGGRTYYADSVKGRFTISLDNAKNTVYLQMNSLKPEDTAVYYCNAVFYYRYYGAYDYWGQGTQVTVSS", "polyreactivity (PSR sort gate)": "high polyreactivity"},
      {"sequence": "QDHLVESGGGLVQAGGSLRLSCAASGRTVGIYAMGWYRQAPGKVRELVASISWSGGRTYYADSVKGRFTISRENAKNTVYLQMNSLKPEDTAVYYCAAYGVYYPRSWLYFDWYGYCGQGTQVTVSS", "polyreactivity (PSR sort gate)": "high polyreactivity"},
      {"sequence": "QDHLVESGGGLVQAGGSLRLSCAASGSTFYFYAMGWYREAPGKERELVAVISSGGRTYYADSVKGRFTISRDNAKNSVYLQMNSLKPVDTGVYYGAASWPSSLTFYYWGHGTQVTVSS", "polyreactivity (PSR sort gate)": "low polyreactivity"},
      {"sequence": "QDHLVESGGGLVQAGGSLRLSCAAYGRTFESYAMGRYRHAPGKERELVAAISYSGGSTYYADSVKGRFTISRDNAKNTVYLQMNSLKPEDTAVYYCAVRWRYKYDYWGQGTQVTVSS", "polyreactivity (PSR sort gate)": "high polyreactivity"},
      {"sequence": "QDHLVESGGGLVQAGGSLRLSCAPSGSIFSYNSMGWYRQAPGKERELVAGISSDGSTNYADSVKGRFSISRDNAKNTVYLQMNSLKPEDTAVYYCAADEIVWQADLWGYGIYDYWGHGTQVTVSS", "polyreactivity (PSR sort gate)": "high polyreactivity"},
      {"sequence": "QDQHVESAGGLVQAGGSLRLSCAASGRIFTINARGWYRQAPGKERELVAGISGRSGGTYYADSVKGRFTISRDNAKNTVYLEMNSLKPEDTAVYYCAGDDWYSTYFEFNYWGQGTQVTVSS", "polyreactivity (PSR sort gate)": "low polyreactivity"},
      {"sequence": "QDQHVESGGGLLQAGGSLRLTCAAYGSIFTDYAMGWYRQPPGKERELVAAITRIGTRTYYADSVKGRFTISRDNAKNTVYLQMNSLKPEDTAVYYCAASGYSPVRWVWLYYWGQGTQVTVSS", "polyreactivity (PSR sort gate)": "high polyreactivity"},
      {"sequence": "QDQHVESGGGLVQAGGSLRLICAASGFTFSHYPMGSYRQAPGKERELVAAINWSGGSTDYADSVKGRFTLSRDNAMNTVYLQMNSLKPVDTAVYYCNTVSYAYWGYYYWGQGTQVTLSS", "polyreactivity (PSR sort gate)": "high polyreactivity"},
      {"sequence": "QDQHVESGGGLVQAGGSLRLSCAASGGIFQSYTMGRYRQAPGKEREFVAAITYSGGSTHYADSVKGRFTISRDKAKNTVYLQMNSLKPEDTAVYYCNADRYYGRGYGYWGQGTQVTVSS", "polyreactivity (PSR sort gate)": "low polyreactivity"},
      {"sequence": "QDQHVESGGGLVQAGGSLRLSCAASGIIFTRNAMGWYRQAPGKERELVAVISWGGRTYYADSVKGRFTISRDNAKNTVYLQMNSLKPEDTAVYYCNARAPYPVGGRKGDYWGQGTQVTVSS", "polyreactivity (PSR sort gate)": "high polyreactivity"},
      {"sequence": "QDQHVESGGGLVQAGGSLRLSCAASGIIFYDNTMGWYRQAPGKERELVASITWRGGSTYYADSVKGRFTISRDNAKNTVYLQMNSLKPEDTAVYYCNADSSDDYDYWGQGTQVTVSS", "polyreactivity (PSR sort gate)": "low polyreactivity"},
      {"sequence": "QDQHVESGGGLVQAGGSLRLSCAASGRTFVPYAMGWYRQAPGKERELVATISRSGGRTNYADSVKGRFTISRDNAKNTVYIQMNSLKPEDTAVYYCAATGFLTWRHMYYWGQGTQVTVSS", "polyreactivity (PSR sort gate)": "high polyreactivity"},
      {"sequence": "QDQHVESGGGLVQAGGSLRLSCAASVITYGRYVMGWDRQAPGKERELVAAITGSGGSTYYADSVKGRFTISRDNAKNTVYLQMNSLKAEDTAVYYCAAAGGYRFDYWGQGTQVTVSS", "polyreactivity (PSR sort gate)": "high polyreactivity"},
      {"sequence": "QDQHVESGGGLVQAGGSLRLSCSASGRTFDYYAMGWYRQAPGKERELVAAINSGGNTYYADSVKGRFTISRDNAKNTVYLQMNSLKPEDTAVYYCAAYYRDKLSGYNYWGQGTQVTVSS", "polyreactivity (PSR sort gate)": "high polyreactivity"}
    ]}
  ]
}
